The values below come from article PMC11555413 (Nature Communications, 2024).

As usually defined, the stoichiometry N is a count of units in the complex or per binding partner.

The data set concerns the molecule itself. In words: SEC.

B1: Myc-APRIL (ligand, UniProt O75888 116-250, looked up)
chain: SVLHLVPINATSKDDSDVTEVMWQPALRRGRGLQAQGYGVRIQDAGVYLLYSQVLFQDVTFTMGQVVSREGQGRQETLFRCIRSMPSHPDRAYNSCYSAGVFHLHQGDILSVIIPRARAKLNLSPHGTFLGFVKL
Take B1: the “stoichiometry N” value stood at 3.

B2: APRIL-Myc (ligand, UniProt O75888 116-250, looked up)
chain: B1 chain
Regarding B2, the “stoichiometry N” value was 3.
